Results as given in patent publication US20250034266A1 (ZAI LAB SHANGHAI, published 2025).
Like-named read-outs stand apart in the source and are kept apart here.

Legend:
human CCR8 [1] = molecular target: T1, human CCR8 (human, UniProt P51685 1-355); assay: FACS on HEK293-human CCR8 cells
T1 construct: whole, on cells; also called hCCR8
Method: (§1) Binding affinities of NG site removed antibodies were determined on human CCR8 and cynomolgus CCR8 overexpression cells. Briefly, CFSE labeled HEK293-human CCR8 cells or CFSE labeled HEK293-cynomolgus CCR8 cells were mixed with HEK293 cells. The mixed ratio was 1:1. A total of 5×10⁴ mixed cells for each well were seeded in 96-well plates and washed by FACS buffer (DPBS containing 1% FBS) once. Cells were incubated by serial diluted purified hybridoma antibodies for 1 hour at 4° C. Antibodies were prepared with 3-fold serial dilution ranging from 100 nM to 0.0017 nM or from 25.3165 nM to 0.0004 nM in FACS buffer. […] After primary antibody incubation, cells were washed by FACS buffer for three times. Then, cells were stained with secondary antibody (Alexa Flu647-conj gated rabbit anti-mouse IgG, Jackson ImmunoResearch, #315606046) at 1:600 dilution in FACS buffer, incubated for 0.5 hour at 4° C. […] FlowJo software was used for analysis. Data was plotted as the logarithm of antibody concentration versus mean fluorescence signals. EC₅₀ values were calculated in GraphPad Prism 8 (GraphPad Software) using a log (agonist) vs. response-Variable slope (4 parameters) curve fit.

cynomolgus CCR8 [2] = molecular target: T2, cynomolgus CCR8 (cynomolgus, UniProt G7NYJ2 1-355); assay: FACS on HEK293-cynomolgus CCR8 cells
T2 construct: whole, on cells
T2 sequence (G7NYJ2 entry or part of it): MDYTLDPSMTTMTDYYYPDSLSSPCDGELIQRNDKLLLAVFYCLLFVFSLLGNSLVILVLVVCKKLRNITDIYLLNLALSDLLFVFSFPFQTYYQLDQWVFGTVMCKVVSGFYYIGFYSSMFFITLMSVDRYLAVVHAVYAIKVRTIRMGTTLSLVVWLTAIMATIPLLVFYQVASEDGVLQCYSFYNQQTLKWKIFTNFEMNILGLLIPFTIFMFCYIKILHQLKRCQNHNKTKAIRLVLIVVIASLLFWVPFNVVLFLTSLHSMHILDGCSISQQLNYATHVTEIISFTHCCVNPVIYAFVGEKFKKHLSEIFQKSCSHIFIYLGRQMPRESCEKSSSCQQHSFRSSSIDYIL
Method: as §1

human CCR8 [3] = molecular target: T1, human CCR8; assay: FACS, competition with AF647-human CCL1 on CHO-K1-human CCR8 cells
Method: Blocking curves were generated to rank the blocking activities of PTM sites removed antibodies. Briefly, a total of 5×10⁴ CHO-K1-human CCR8 cells for each well were seeded in 96-well plate. Cells were incubated by series diluted purified hybridoma antibodies and 4 nM AF647 labeled human CCL1 (Almac, #CAF-07) for 1 hour at 4° C. Antibodies were prepared with 3-fold serial dilution ranging from 100 nM to 0.0051 nM in FACS buffer. Then, cells were washed by FACS buffer for three times after incubation. […] FlowJo software was used for analysis. Data was plotted as the logarithm of antibody concentration versus mean fluorescence signals. IC₅₀ values were determined in GraphPad Prism 8 (GraphPad Software) using a log(agonist) vs. response-Variable slope (4 parameters) curve fit.

human CCR8 [4] = molecular target: T1, human CCR8; assay: FACS on HEK293-human CCR8 cells; remark: listed apart in the source
Method: (§2) A total of 5×10⁴ cells for each well were seeded in 96-well plates and washed with FACS buffer (DPBD containing 1.5% FBS) for once. Antibodies were prepared with 3-fold serial dilution ranging from 100 nM to 0.0017 nM in FACS buffer. Cells were incubated with 50 μL of diluted antibodies at 4° C. for 1 hour. […] After primary antibody incubation, cells were washed for 3 times by FACS buffer. Then, cells were stained by Alexa Flu647 labeled anti-human IgG secondary antibody (Jackson ImmunoResearch, #109606170) or Alexa Flu647 labeled anti-mouse IgG secondary antibody (Jackson ImmunoResearch, #115605072) at 1:600 dilution in FACS buffer for 0.5 hour at 4° C. After washed for 3 times, Flow cytometry was performed to measure the binding.

cynomolgus CCR8 [5] = molecular target: T2, cynomolgus CCR8; assay: FACS on HEK293-cynomolgus CCR8 cells; remark: listed apart in the source
Method: as §2

human CCR8 [6] = molecular target: T1, human CCR8; assay: FACS, competition with AF647-human CCL1 on CHO-K1-human CCR8 cells; remark: listed apart in the source
human CCR8 [7] = molecular target: T1, human CCR8; assay: FACS on CHO-K1-human CCR8 cells
cynomolgus CCR8 [8] = molecular target: T2, cynomolgus CCR8; assay: FACS on HEK293-cynomolgus CCR8 cells; remark: listed apart in the source
human CCR8 [9] = molecular target: T1, human CCR8; assay: FACS on HuT78 cells (endogenous human CCR8)
Method: HuT78 cells expressing endogenous human CCR8 were used for determining binding affinities of selected affinity matured anti-CCR8 antibodies. Briefly, a total of […] cells for each well were seeded in 96-well plates and washed with FACS buffer (DPBS containing […]) for once. […] Cells were incubated with 50 μL of diluted antibodies at 4° C. for 1 hour. After primary antibody incubation, cells were washed for 3 times by FACS buffer. Then, cells were stained by Alexa Fbu647 labeled anti-human IgG secondary antibody (Jackson ImmunoResearch, #109606170) at 1:600 dilution in FACS buffer for 0.5 hour at 4° C. After 3 times washed, flow cytometry (Sartourius, iQue3) was performed to measure the binding affinities of antibodies. […]

human CCR8 [10] = molecular target: T1, human CCR8; assay: FACS, competition with CCL1 on CHO-K1-human CCR8 cells

T1 sequence (P51685 whole entry): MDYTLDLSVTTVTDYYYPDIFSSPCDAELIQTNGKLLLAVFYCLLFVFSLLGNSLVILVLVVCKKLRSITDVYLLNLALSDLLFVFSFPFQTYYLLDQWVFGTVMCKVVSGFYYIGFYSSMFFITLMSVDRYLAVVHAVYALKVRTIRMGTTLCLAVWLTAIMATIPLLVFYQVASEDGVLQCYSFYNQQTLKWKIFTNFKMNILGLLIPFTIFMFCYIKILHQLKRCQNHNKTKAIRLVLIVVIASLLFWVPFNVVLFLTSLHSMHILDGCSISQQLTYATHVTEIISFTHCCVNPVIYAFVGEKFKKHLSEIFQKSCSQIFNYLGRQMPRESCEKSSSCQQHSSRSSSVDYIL

| EC50 (human CCR8 [1]) [nM] | Max MFI (human CCR8 [1]) [MFI] | EC50 (cynomolgus CCR8 [2]) [nM] | Max MFI (cynomolgus CCR8 [2]) [MFI] | IC50 (human CCR8 [3]) [nM] | Max Inhibition (%) (human CCR8 [3]) | Binder | other results |
| --- | --- | --- | --- | --- | --- | --- | --- |
| 0.129 | 2040 | 0.173 | 4720 | 0.725 | 77.5 | 149F2C10_G29A (antibody, V domains shown, NG site removed variant of 149F2C10) VH: EVQLVESGGGLVQPKGSLKLSCAASGFTFNTYAMNWVRQAPGKGLEWVARIRSKSNFYATYYADSVKDRFTISRDDSQDMLYLQMNILKTEDTAIYYCVRGRDYGSSYAMDYWGQGTSVTVSS VL: DIVMTQAAPSVPVTPGESVSISCRSSKSLLHSNANTYLYWFLQRPGQSPQLLIYRMSNLASGVPDRFSGSGSGTAFTLRISRVEAEDVGVYYCMQHLEYPLTFGAGTKLELK | – |
| 0.142 | 1740 | 0.131 | 3310 | 0.934 | 80.1 | 149F2C10-CHO (antibody, V domains shown, The suffix -CHO is not explained) VH: EVQLVESGGGLVQPKGSLKLSCAASGFTFNTYAMNWVRQAPGKGLEWVARIRSKSNFYATYYADSVKDRFTISRDDSQDMLYLQMNILKTEDTAIYYCVRGRDYGSSYAMDYWGQGTSVTVSS VL: DIVMTQAAPSVPVTPGESVSISCRSSKSLLHSNGNTYLYWFLQRPGQSPQLLIYRMSNLASGVPDRFSGSGSGTAFTLRISRVEAEDVGVYYCMQHLEYPLTFGAGTKLELK | – |
| 0.161 | 1640 | 0.209 | 2450 | 3.07 | 55.7 | 149F2C10_N28Q (antibody, V domains shown, NG site removed variant of 149F2C10; detected with anti-mouse IgG) VH: EVQLVESGGGLVQPKGSLKLSCAASGFTFNTYAMNWVRQAPGKGLEWVARIRSKSNFYATYYADSVKDRFTISRDDSQDMLYLQMNILKTEDTAIYYCVRGRDYGSSYAMDYWGQGTSVTVSS VL: DIVMTQAAPSVPVTPGESVSISCRSSKSLLHSQGNTYLYWFLQRPGQSPQLLIYRMSNLASGVPDRFSGSGSGTAFTLRISRVEAEDVGVYYCMQHLEYPLTFGAGTKLELK | – |
| 0.194 | 1900 | 0.211 | 4680 | 1.04 | 72 | 149F2C10_G29V (antibody, V domains shown, NG site removed variant of 149F2C10) VH: EVQLVESGGGLVQPKGSLKLSCAASGFTFNTYAMNWVRQAPGKGLEWVARIRSKSNFYATYYADSVKDRFTISRDDSQDMLYLQMNILKTEDTAIYYCVRGRDYGSSYAMDYWGQGTSVTVSS VL: DIVMTQAAPSVPVTPGESVSISCRSSKSLLHSNVNTYLYWFLQRPGQSPQLLIYRMSNLASGVPDRFSGSGSGTAFTLRISRVEAEDVGVYYCMQHLEYPLTFGAGTKLELK | – |
| 0.21 | 1420 | 0.333 | 2020 | 15 | 44.9 | 149F2C10_N28S (antibody, V domains shown, NG site removed variant of 149F2C10) VH: EVQLVESGGGLVQPKGSLKLSCAASGFTFNTYAMNWVRQAPGKGLEWVARIRSKSNFYATYYADSVKDRFTISRDDSQDMLYLQMNILKTEDTAIYYCVRGRDYGSSYAMDYWGQGTSVTVSS VL: DIVMTQAAPSVPVTPGESVSISCRSSKSLLHSSGNTYLYWFLQRPGQSPQLLIYRMSNLASGVPDRFSGSGSGTAFTLRISRVEAEDVGVYYCMQHLEYPLTFGAGTKLELK | – |
| 0.146 | 2060 | 0.19 | 4640 | 1.09 | 70.7 | 149F2C10_G29I (antibody, V domains shown, NG site removed variant of 149F2C10) VH: EVQLVESGGGLVQPKGSLKLSCAASGFTFNTYAMNWVRQAPGKGLEWVARIRSKSNFYATYYADSVKDRFTISRDDSQDMLYLQMNILKTEDTAIYYCVRGRDYGSSYAMDYWGQGTSVTVSS VL: DIVMTQAAPSVPVTPGESVSISCRSSKSLLHSNINTYLYWFLQRPGQSPQLLIYRMSNLASGVPDRFSGSGSGTAFTLRISRVEAEDVGVYYCMQHLEYPLTFGAGTKLELK | – |
| 0.244 | 1650 | 0.314 | 1890 | 2.25 | 65.3 | 149F2C10_N28I (antibody, V domains shown, NG site removed variant of 149F2C10) VH: EVQLVESGGGLVQPKGSLKLSCAASGFTFNTYAMNWVRQAPGKGLEWVARIRSKSNFYATYYADSVKDRFTISRDDSQDMLYLQMNILKTEDTAIYYCVRGRDYGSSYAMDYWGQGTSVTVSS VL: DIVMTQAAPSVPVTPGESVSISCRSSKSLLHSIGNTYLYWFLQRPGQSPQLLIYRMSNLASGVPDRFSGSGSGTAFTLRISRVEAEDVGVYYCMQHLEYPLTFGAGTKLELK | – |
| – | – | – | – | – | – | Hu149-1 (antibody, V domains shown, humanized IgG, detected with anti-human IgG) VH: EVQLVESGGGLVQPGGSLKLSCAASGFTFNTYAMNWVRQASGKGLEWVGRIRSKSNFYATYYAASVKGRFTISRDDSKNTAYLQMNSLKTEDTAVYYCVRGRDYGSSYAMDYWGQGTLVTVSS VL: DIVMTQSPLSLPVTPGEPASISCRSSKSLLHSNANTYLYWFLQKPGQSPQLLIYRMSNLASGVPDRFSGSGSGTDFTLKISRVEAEDVGVYYCMQHLEYPLTFGGGTKVELK | EC50 (human CCR8 [4]): 0.534 nM; Max MFI (human CCR8 [4]): 7610 MFI; EC50 (cynomolgus CCR8 [5]): 0.578 nM; Max MFI (cynomolgus CCR8 [5]): 20900 MFI; IC50 (human CCR8 [6]): 0.936 nM; Max Inhibition (%) (human CCR8 [6]): 99.2% |
| – | – | – | – | – | – | Hu149-23 (antibody, human IgG1, V domains shown, human IgG1) VH: EVQLVESGGGLVQPGGSLKLSCAASGFTFNTYAMNWVRQAPGKGLEWVGRIRSKSNFYATAYAASVKGRFTISRDDSKNTAYLQMNSLKTEDTAVYYCTRGREYGSSYAMDYWGQGTLVTVSS VL: DIVMTQSPLSLPVTPGEPASISCRSSKSLLHSNANTYLYWFLQKPGQSPQLLIYRMSNLASGVPDRFSGSGSGTDFTLKISRVEAEDVGVYYCMQHLKYPLTFGGGTKVELK | EC50 (human CCR8 [7]): 0.265 nM; Max MFI (human CCR8 [7]): 816000 MFI; EC50 (cynomolgus CCR8 [8]): 0.369 nM; Max MFI (cynomolgus CCR8 [8]): 4.32e+06 MFI; Max MFI (human CCR8 [9]): 161000 MFI; IC50 (human CCR8 [10]): 0.259 nM; Max Inhibition (%) (human CCR8 [10]): 103% |
| – | – | – | – | – | – | Hu149-2 (antibody, V domains shown, humanized IgG) VH: EVQLVESGGGLVQPGGSLKLSCAASGFTFNTYAMHWVRQASGKGLEWVGRIRSKSNFYATYYAASVKGRFTISRDDSKNTAYLQMNSLKTEDTAVYYCVRGRDYGSSYAMDYWGQGTLVTVSS VL: DIVMTQSPLSLPVTPGEPASISCRSSKSLLHSNANTYLYWFLQKPGQSPQLLIYRMSNLASGVPDRFSGSGSGTDFTLKISRVEAEDVGVYYCMQHLEYPLTFGGGTKVELK | EC50 (human CCR8 [4]): 3.48 nM; Max MFI (human CCR8 [4]): 1120 MFI; EC50 (cynomolgus CCR8 [5]): 146 nM; Max MFI (cynomolgus CCR8 [5]): 1550 MFI; IC50 (human CCR8 [6]): 12.5 nM; Max Inhibition (%) (human CCR8 [6]): 39.5% |
| – | – | – | – | – | – | Hu149-24 (antibody, human IgG1, V domains shown, human IgG1) VH: EVQLVESGGGLVQPGGSLKLSCAASGFTFNTYAMNWVRQAPGKGLEWVGRIRSKSNFYATAYAASVKGRFTISRDDSKNTAYLQMNSLKTEDTAVYYCTRGKEYGSSYAMDYWGQGTLVTVSS VL: DIVMTQSPLSLPVTPGEPASISCRSSKSLLHSNANTYLYWFLQKPGQSPQLLIYRMSNLASGVPDRFSGSGSGTDFTLKISRVEAEDVGVYYCMQHLKYPLTFGGGTKVELK | EC50 (human CCR8 [7]): 0.166 nM; Max MFI (human CCR8 [7]): 844000 MFI; EC50 (cynomolgus CCR8 [8]): 0.161 nM; Max MFI (cynomolgus CCR8 [8]): 3.9e+06 MFI; Max MFI (human CCR8 [9]): 198000 MFI; IC50 (human CCR8 [10]): 0.172 nM; Max Inhibition (%) (human CCR8 [10]): 106% |
